The text below walks through data of article PMC3622683, “Purification, Gene Cloning, and Biochemical Characterization of a β-Glucosidase Capable of Hydrolyzing Sesaminol Triglucoside from Paenibacillus sp. KB0549” (PLoS ONE, 2013).

The term Km denotes the concentration of substrate that gives half-maximal velocity. Broadly, the kcat is the maximal rate divided by the concentration of active sites. Broadly, the kcat/Km is the second-order rate constant that governs catalysis at low substrate concentration.

Holding throughout (settings): pH 7.0, 37°C, potassium phosphate
Substrate in series [1]: O=[N+]([O-])c1ccc(O[C@@H]2OC[C@@H](O)[C@H](O)[C@H]2O)cc1
Description: purified protein. Format: biochemical, Paenibacillus relictisesami.

Substrate in series [2]: O=[N+]([O-])c1ccc(O[C@@H]2O[C@H](CO)[C@@H](O[C@@H]3O[C@H](CO)[C@@H](O)[C@H](O)[C@H]3O)[C@H](O)[C@H]2O)cc1
Description: purified protein. It is filed as biochemical, Paenibacillus relictisesami.

Substrate in series [3]: OC[C@H]1O[C@@H](OC[C@H]2O[C@@H](Oc3cc4c(cc3[C@H]3OC[C@H]5[C@@H]3CO[C@@H]5c3ccc5c(c3)OCO5)OCO4)[C@H](O[C@@H]3O[C@H](CO)[C@@H](O)[C@H](O)[C@H]3O)[C@@H](O)[C@@H]2O)[C@H](O)[C@@H](O)[C@@H]1O
Description: HPLC of STG hydrolysis, initial velocities. It is filed as biochemical, Paenibacillus relictisesami. Here is the method:
HPLC of STG hydrolysis, initial velocities on rPSTG (recombinant PSTG, STG-hydrolyzing β-glucosidase) | k cat and K m values of rPSTG for hydrolysis of STG were determined

Substrate in series [4]: O=[N+]([O-])c1ccc(O[C@@H]2O[C@H](CO)[C@@H](O)[C@H](O)[C@H]2O)cc1
Description: purified protein.

Substrate in series [5]: O=[N+]([O-])c1ccc(O[C@@H]2O[C@H](CO)[C@H](O)[C@H](O)[C@H]2O)cc1
Description: purified protein.

B1: rPSTG (recombinant PSTG, STG-hydrolyzing β-glucosidase) (Paenibacillus relictisesami) (protein)
chain: MSERRDLKALISQMTLEEKASLCTGRDTWHTQPIERLGIPSVMMTDGPHGLRKQKAASDHLGLFDSVPSTCFPSAVGVASSWNRDLIERMGQALGKECQAENVAVLLGPGANIKRSPLCGRNFEYFSEDPYLSSEMAAHHIMGVQSQGVGTSLKHFAANNQEYRRMTSDSVVNERTLREIYLTSFEGAVKKARPWTVMCSYNKVNGEYAAENERLLTGILKQEWGHEGFVVSDWGAVNDRVKSLAAGLELEMPHEGAGTKQIIEAVESGQLAEEKLDLAVERLLTVIFRSVDQHKEGAVYDPEAHHKLAREIAAESMVLLKNEDRILPLKREGTIAVIGELAKVPRYQGSGSSQIKPTRLDDIVFELAASAGEHARVTYTQGYDLKSDDINAVLTEEALQAAKEASVAVLFAGLPKRYESEGFDRKHMRMPDNQIALIEAVAAVQPNLVVVLCNGAPIEMPWLPQAKAVLEAYLGGQALGGAIADLLFGDANPSGKLAETFPVQLSDNPSFLNFPGEGDRVEYREGLFVGYRYYDKKQLRPLFPFGHGLSYTTFAYSNLSVDKKEILDTETLKVCVNVKNTGERAGKEIVQLYVRDVESSVIRPLKELKGFDKVFLAPGEEKTLTFELGKRSFAYYDPSIKDWMVETGAFEILIGRSSQDIVLAETVMVRSTVSRKIVYHRNSTVADLMLTEKGAAFAQKLRGMIPFGETVGEEYAEMLEAFKESVPLRGLISFSAGRFTEEDLSKLLEYLNG
notes: full-length 753 aa, 83,298 Da, no signal peptide; expressed from pDEST17 in E. coli BL21-AI, HisTrap purified (tag cleavage not mentioned); likely tetramer, 310 kDa; GH3
In the case of B1, the Km in series [1] came to 35.7 ± 12.2 mM; in series [2] it was 0.23 ± 0.04 mM; in series [3], 1.4 ± 0.4 mM; in series [4], 0.10 ± 0.01 mM; in series [5] it was 29.0 ± 7.0 mM. In addition, the kcat worked out at 69 s⁻¹ in series [1]; 0.47 ± 0.03 s⁻¹ in series [2]; 9.3 ± 0.8 s⁻¹ in series [3]; 44.3 s⁻¹ in series [4]; 2.06 s⁻¹ in series [5]. For the same protein, the kcat/Km in series [1] was 1930 M⁻¹ s⁻¹; in series [2], 2040 M⁻¹ s⁻¹; in series [4], 426000 M⁻¹ s⁻¹; in series [5], 71 M⁻¹ s⁻¹.
